Test [1] has as its target HA from A/New York/107/2003 (Influenza A virus A/New York/107/2003 …, UniProt B2LVD7, strain). As to the kind of experiment: ELISA.
The target in test [2] is monomeric HA head domain from H1 A/California/07/2009 (influenza A virus A/California/07/2009 …, UniProt C3W5X2). As to the kind of experiment: BLI. Background: In BLI a coated tip is dipped into the sample, and binding shifts an interference pattern.
The target of test [3] is trimeric recombinant HA from H1 A/California/04/2009 (Influenza A virus A/California/04/2009 …, UniProt C3W5S1). As to the kind of experiment: BLI.
The target of the next test is IN/05 HA (Influenza A virus A/Indonesia/5/2005 …, UniProt C5MRF2, strain). Description: ELISA. On the technique in general: In an ELISA, binding on a coated surface is turned into a signal by an enzyme label.
For test [4], the target named is head domain of VN/04 HA (A/Vietnam/1203/2004 H5N1), monomeric (Influenza A virus A/Vietnam/1203/2004 …, strain). Description: HDX-MS.

Where a chain is given by its changes, count along the chain named.

B1: FluA-151 (antibody, V domains shown)
VH: QELLVESGGGVVQPGRSLRLSCVGSGFTFRTYGMHWVRQAPGRRPEWVALISNDGSREYYADSVKGRFTISRDNSRNTLYLQMNSLTVADTAVYYCAKFIPDPNYGEFYFHHWGQGTLVTVSS
VL: DIQMTQSPSSLSASVEDRVTITCRASQSINKYLNWYQQKPGKAPKLLIYAADNLQDAVPSRFSGSGSGTDFTLTITGLHPDDLATYYCQQSYTIPPTFGHGTKVEIK
With B1, in test [1], the binding result was “no binding”.

B2: mAb 5J8 (antibody, V domains shown)
VH: EVQLVESGPGLVKPSDILSLTCAVSGYSISSNYYWGWIRQPPGKGLEWIGSIYHSGSTYYKPSLESRLGISVDTSKNQFSLKLSFVSAADTAVYYCARHVRSGYPDTAYYFDKWGQGTLVTVSS
VL: SYVLTQPPSVSVAPGETARISCGGNNIGTKVLHWYQQTPGQAPVLVVYDDSDRPSGIPERFSGSNSGNTATLTISRVEVGDEADYYCQVWDISTDQAVFGGGTKLTVL
In the case of B2, the binding result in test [2] and in test [3] was “binds” each time.

B3: FluA-20 (antibody, V domains shown)
VH: QVQLEESGPGLVKPSETLSLTCSVSGVSVTSDIYYWTWIRQPPGKGLEWIGYIFYNGDTNYNPSLKSRVTMSIDTSKNEFSLRLTSVTAADTAVYFCARGTEDLGYCSSGSCPNHWGQGTLVTVSS
VL: DIVMTQSPSSLSASIGDRVTITCRPSQNIRSFLNWFQHKPGKAPKLLIYAASNLQSGVPSRFSGSGSGTEFTLTIRSLQPEDFATYYCQQSYNTPPTFGQGTKVEIK
As for B3, the binding result in test [1] is listed as “no binding”.

B4: mAb H5.28, hybridoma-generated IgG (antibody, V domains shown)
VH: EVQLVESGGGLVQPGGSLRLSCAASGFTFSTYWMTWVRQAPGKGLEWVANINQDGGEKYFVDSVKGRFTISRDNAKNSLFLQMNTLRAEDTAVYYCARGFLERLLLGRQGAYYYGMDVWGQGTTVTVSS
VL: DIQMTQSPSSLSASVGDRVSMTCRASQIISSSLNWYQQKPGKAPKLLIYAASNLQSGVPSRFSGSGSGTDFTLTISSLQPEDFATYYCQQSYSTPPELTFGGGTKVEIK
Consider B4, for which the binding result with IN/05 HA was “binds”.

B5: H5.28 Fab (recombinant) (Fab, V domains shown)
VH: B4 VH
VL: B4 VL
As for B5, the binding result in test [4] was “binds”.

B6: mAb H5.31, hybridoma-generated IgG (antibody, V domains shown)
VH: EVQLVQSGGGLVQPGGSLRLSCEASRFTSSSYWITWVRQAPGKGLEWVANIKQDGSEKYFVDSVKGRFTISRDNASNSLYLQMSSLRAEDTAVYYCARGFLERLLLGRQGAYYYGMDVWGQGTTVTVSS
VL: B4 VL with Q3V, S9F, S20T, I28S, S93T, T94M
For B6, the binding result with IN/05 HA is reported as “binds”.

Values taken from paper doi:10.1101/2020.12.31.424868 (bioRxiv, 2020).
